From patent US20220362368A1
Like-named read-outs stand apart in the source and are kept apart here.

Experiments:
[1] = biological target: SpAKKAA (Staphylococcus aureus); assay: ELISA, OD 450 against log10(1/dilution of 3F6), initial 0.05 mg/mL
[2] = biological target: SpAQ9,10K/G29F/D36,37A (Staphylococcus aureus) (UniProt P02976); assay: as above
[3] = biological target: human IgG; assay: SPR, test article on chip, human IgG in flow
[4] = biological target: F(ab)2 fragment of human IgG; assay: SPR, test article on chip, F(ab)2 fragment of human IgG in flow
[5] = biological target: Fcγ fragment of human IgG (human); assay: BLI, test article on Ni-NTA sensor, Fc fragment of human IgG in solution
[6] = biological target: human IgG; assay: method and unit not given (binding affinity of the variants to human IgG)
[7] = biological target: human IgE; assay: method and unit not told (binding affinity of the variants to human IgE)
[8] = biological target: SpAQ9,10K/S33E (Staphylococcus aureus)
[9] = biological target: SpAQ9,10K/S33T (Staphylococcus aureus)
[10] = biological target: SpAKKAA (Staphylococcus aureus); assay: ELISA, plates coated with SpAKKAA, serial dilution of hMAb 3F6
[11] = biological target: SpAKKAA (Staphylococcus aureus); assay: ELISA, association constant calculated with GraphPad Prism; head of the table: KA (x 10^10) M^-1
[12] = biological target: SpAQ9,10K/S33E (Staphylococcus aureus); assay: as above
[13] = biological target: SpAQ9,10K/S33T (Staphylococcus aureus); assay: as above
[14] = biological target: SpAQ9,10K/S33E (Staphylococcus aureus); remark: listed apart in the source
[15] = biological target: SpAQ9,10K/S33T (Staphylococcus aureus); remark: listed apart in the source
[16] = biological target: SpAKKAA (Staphylococcus aureus); assay: ELISA, plate coated with antigen, serial dilutions of rMAb 3F6
[17] = biological target: SpAQ9,10K/S33E (Staphylococcus aureus); assay: as above
[18] = biological target: SpAQ9,10K/S33T (Staphylococcus aureus); assay: as above
[19] = biological target: SpAKKAA (Staphylococcus aureus); assay: ELISA, plates coated with SpAKKAA, serial dilution of rMAb 3F6

Row | Substance | Ka [3] | other results
1 | 3F6 (antibody) |  | EC50 (read off the curve) [1]: 6 ng/mL; EC50 (read off the curve) [2]: 6 ng/mL
2 | SpAKKAA (from UniProt A0A0H3K686 37-327) | 502000 M⁻¹ | Ka [4]: 82700 M⁻¹; Ka [5]: 32.9 M⁻¹; human IgG affinity [6]: 6.6e-05; human IgE affinity [7]: 6.57e-08
3 | SpAQ9,10K/G29A (from UniProt A0A0H3K686 37-327) | 1.13e+06 M⁻¹ | 
4 | SpAQ9,10K/G29A/D36,37A (from UniProt A0A0H3K686 37-327) | 178000 M⁻¹ | human IgG affinity [6]: 0.000143; human IgE affinity [7]: 3.43e-06
5 | SpAQ9,10K/G29C (from UniProt A0A0H3K686 37-327) | 174000 M⁻¹ | 
6 | SpAQ9,10K/G29D (from UniProt A0A0H3K686 37-327) | 548000 M⁻¹ | 
7 | SpAQ9,10K/G29E (from UniProt A0A0H3K686 37-327) | 318000 M⁻¹ | 
8 | SpAQ9,10K/G29F (from UniProt A0A0H3K686 37-327) | 346000 M⁻¹ | 
9 | SpAQ9,10K/G29F/D36,37A (from UniProt P02976 37-327) | 372000 M⁻¹ | human IgG affinity [6]: 0.0124; human IgE affinity [7]: 2.02e-05
10 | SpAQ9,10K/G29H (from UniProt A0A0H3K686 37-327) | 144000 M⁻¹ | 
11 | SpAQ9,10K/G29I (from UniProt A0A0H3K686 37-327) | 1.01e+06 M⁻¹ | 
12 | SpAQ9,10K/G29K (from UniProt A0A0H3K686 37-327) | 974000 M⁻¹ | 
13 | SpAQ9,10K/G29L (from UniProt A0A0H3K686 37-327) | 315000 M⁻¹ | 
14 | SpAQ9,10K/G29M (from UniProt A0A0H3K686 37-327) | 389000 M⁻¹ | 
15 | SpAQ9,10K/G29N (from UniProt A0A0H3K686 37-327) | 623000 M⁻¹ | 
16 | SpAQ9,10K/G29P (from UniProt A0A0H3K686 37-327) | 340000 M⁻¹ | 
17 | SpAQ9,10K/G29Q (from UniProt A0A0H3K686 37-327) | 206000 M⁻¹ | 
18 | SpAQ9,10K/G29R (from UniProt A0A0H3K686 37-327) | 606000 M⁻¹ | 
19 | SpAQ9,10K/G29R/D36,37A (from UniProt A0A0H3K686 37-327) | 681000 M⁻¹ | 
20 | SpAQ9,10K/G29S (from UniProt A0A0H3K686 37-327) | 940000 M⁻¹ | 
21 | SpAQ9,10K/G29T (from UniProt A0A0H3K686 37-327) | 198000 M⁻¹ | 
22 | SpAQ9,10K/G29V (from UniProt A0A0H3K686 37-327) | 435000 M⁻¹ | 

Row | Substance | Ka [3] | other results
23 | SpAQ9,10K/G29W (from UniProt A0A0H3K686 37-327) | 451000 M⁻¹ | 
24 | SpAQ9,10K/G29Y (from UniProt A0A0H3K686 37-327) | 837000 M⁻¹ | 
25 | SpAQ9,10K/S33A/D36,37A (from UniProt A0A0H3K686 37-327) | 1.88e+06 M⁻¹ | 
26 | SpAQ9,10K/S33C (from UniProt P02976 37-327) | 458000 M⁻¹ | 
27 | SpAQ9,10K/S33D (from UniProt P02976 37-327) | 382000 M⁻¹ | 
28 | SpAQ9,10K/S33E (from UniProt A0A0H3K686 37-327) | 49600 M⁻¹ | Ka [4]: 41.2 M⁻¹; Ka [5]: 32.7 M⁻¹
29 | SpAQ9,10K/S33E/D36,37A (from UniProt P02976 37-327) | 56800 M⁻¹ | 
30 | SpAQ9,10K/S33E/D36,37A/G29A (from UniProt P02976 37-327) | 189000 M⁻¹ | 
31 | SpAQ9,10K/S33E/D36,37A/G29F (from UniProt P02976 37-327) | 1.48e+06 M⁻¹ | 
32 | SpAQ9,10K/S33E/D36,37A/G29R (from UniProt P02976 37-327) | 1.02e+06 M⁻¹ | 
33 | SpAQ9,10K/S33E/G29A (from UniProt P02976 37-327) | 126000 M⁻¹ | 
34 | SpAQ9,10K/S33E/G29F (from UniProt P02976 37-327) | 158000 M⁻¹ | 
35 | SpAQ9,10K/S33E/G29R (from UniProt P02976 37-327) | 484000 M⁻¹ | 
36 | SpAQ9,10K/S33F/D36,37A (from UniProt A0A0H3K686 37-327) | 363000 M⁻¹ | 
37 | SpAQ9,10K/S33F/D36,37A/G29R | 906000 M⁻¹ | 
38 | SpAQ9,10K/S33F/G29A (from UniProt A0A0H3K686 37-327) | 119000 M⁻¹ | 
39 | SpAQ9,10K/S33F/G29F (from UniProt A0A0H3K686 37-327) | 244000 M⁻¹ | 
40 | SpAQ9,10K/S33F/G29R (from UniProt A0A0H3K686 37-327) | 190000 M⁻¹ | 
41 | SpAQ9,10K/S33G (from UniProt P02976 37-327) | 1.12e+06 M⁻¹ | 
42 | SpAQ9,10K/S33H (from UniProt A0A0H3K686 37-327) | 278000 M⁻¹ | 
43 | SpAQ9,10K/S33I (from UniProt A0A0H3K686 37-327) | 184000 M⁻¹ | 
44 | SpAQ9,10K/S33K (from UniProt P02976 37-327) | 512000 M⁻¹ | 

Row | Substance | Ka [3] | other results
45 | SpAQ9,10K/S33K/D36,37A (from UniProt A0A0H3K686 37-327) | 805000 M⁻¹ | 
46 | SpAQ9,10K/S33L (from UniProt A0A0H3K686 37-327) | 205000 M⁻¹ | 
47 | SpAQ9,10K/S33M (from UniProt A0A0H3K686 37-327) | 318000 M⁻¹ | 
48 | SpAQ9,10K/S33N (from UniProt A0A0H3K686 37-327) | 307000 M⁻¹ | 
49 | SpAQ9,10K/S33P (from UniProt P02976 37-327) | 422000 M⁻¹ | 
50 | SpAQ9,10K/S33Q/D36,37A (from UniProt P02976 37-327) | 393000 M⁻¹ | 
51 | SpAQ9,10K/S33Q/D36,37A/G29A | 489000 M⁻¹ | 
52 | SpAQ9,10K/S33Q/D36,37A/G29F | 1.25e+06 M⁻¹ | 
53 | SpAQ9,10K/S33Q/D36,37A/G29R | 638000 M⁻¹ | 
54 | SpAQ9,10K/S33Q/G29A (from UniProt A0A0H3K686 37-327) | 256000 M⁻¹ | 
55 | SpAQ9,10K/S33Q/G29F (from UniProt A0A0H3K686 37-327) | 128000 M⁻¹ | 
56 | SpAQ9,10K/S33Q/G29R (from UniProt A0A0H3K686 37-327) | 233000 M⁻¹ | 
57 | SpAQ9,10K/S33R (from UniProt A0A0H3K686 37-327) | 346000 M⁻¹ | 
58 | SpAQ9,10K/S33T (from UniProt A0A0H3K686 37-327) | 38600 M⁻¹ | Ka [4]: 43.5 M⁻¹; Ka [5]: 39.9 M⁻¹
59 | SpAQ9,10K/S33V (from UniProt A0A0H3K686 37-327) | 247000 M⁻¹ | 
60 | SpAQ9,10K/S33W (from UniProt A0A0H3K686 37-327) | 236000 M⁻¹ | 
61 | SpAQ9,10K/S33Y (from UniProt A0A0H3K686 37-327) | 157000 M⁻¹ | 
62 | hMAb 3F6 (antibody) |  | EC50 (read off the curve) [8]: 0.3 nM; EC50 (read off the curve) [9]: 0.3 nM; EC50 (read off the curve) [10]: 0.4 nM; Ka [11]: 4.99e+10 M⁻¹; Ka [12]: 9.82e+10 M⁻¹; Ka [13]: 7.96e+10 M⁻¹
63 | recombinant monoclonal antibody rMAb 3F6 |  | EC50 (read off the curve) [14]: 0.07 nM; EC50 (read off the curve) [15]: 0.07 nM; Ka [16]: 1.51e+10 M⁻¹; Ka [17]: 1.42e+10 M⁻¹; Ka [18]: 1.34e+10 M⁻¹; EC50 (read off the curve) [19]: 0.07 nM
64 | wild-type SpA (five immunoglobulin-binding domains of staphylococcal protein A) (from UniProt P02976 37-327) |  | Ka [5]: 5.17e+07 M⁻¹
